Blank lines part the entries; values can stand above or below the binder they belong to.
Tests used:
Assay in all cases: holdup assay
Parameters in all cases: key: below the threshold = too weak to quantify, mostly under pKd 3.1 to 4
ARHGAP21, Q5T5U3 = biological target: T1, ARHGAP21, Q5T5U3
T1 sequence (Q5T5U3 45-169, limits assumed, looked up): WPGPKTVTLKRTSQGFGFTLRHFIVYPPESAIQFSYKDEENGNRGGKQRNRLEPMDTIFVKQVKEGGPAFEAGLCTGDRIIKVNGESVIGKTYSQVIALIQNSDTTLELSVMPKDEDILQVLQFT

ARHGEF12, Q9NZN5-2 = biological target: ARHGEF12, Q9NZN5-2
ARHGEF12, Q9NZN5-2, sequence (Q9NZN5 other isoform, or with tags, fused parts or gaps): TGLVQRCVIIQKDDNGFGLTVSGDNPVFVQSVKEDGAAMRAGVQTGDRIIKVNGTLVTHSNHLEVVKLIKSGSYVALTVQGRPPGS

DFNB31_1, Q9P202 = biological target: T2, DFNB31_1, Q9P202
T2 sequence (Q9P202 135-233, limits assumed, looked up): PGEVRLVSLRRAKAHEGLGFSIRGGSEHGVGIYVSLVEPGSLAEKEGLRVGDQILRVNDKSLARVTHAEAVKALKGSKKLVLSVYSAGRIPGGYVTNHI

DLG1_1, Q12959 = biological target: DLG1_1, Q12959
DLG3_1, Q92796 = biological target: T3, DLG3_1, Q92796
T3 sequence (Q92796 125-227, limits assumed, looked up): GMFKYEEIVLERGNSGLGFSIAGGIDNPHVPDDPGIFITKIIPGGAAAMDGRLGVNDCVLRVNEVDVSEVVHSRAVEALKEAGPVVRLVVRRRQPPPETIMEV

DLG3_3, Q92796 = biological target: T4, DLG3_3, Q92796
T4 sequence (Q92796 374-475, limits assumed, looked up): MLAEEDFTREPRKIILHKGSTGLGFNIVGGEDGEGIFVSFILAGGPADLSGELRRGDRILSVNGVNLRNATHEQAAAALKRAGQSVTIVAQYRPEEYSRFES

GOPC, Q9HD26 = biological target: GOPC, Q9HD26
HTRA2, O43464 = biological target: HTRA2, O43464
HTRA2, O43464, sequence (O43464 355-458): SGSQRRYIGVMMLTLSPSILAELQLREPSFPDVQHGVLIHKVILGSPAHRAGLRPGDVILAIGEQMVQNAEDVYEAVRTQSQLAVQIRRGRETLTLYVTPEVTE

IL16_1, Q14005 = biological target: IL16_1, Q14005
IL16_1, Q14005, sequence (Q14005 210-306): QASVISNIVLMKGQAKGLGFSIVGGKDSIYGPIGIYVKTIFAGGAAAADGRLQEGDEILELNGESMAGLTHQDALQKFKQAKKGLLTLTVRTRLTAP

LDB3, O75112 = biological target: LDB3, O75112
LDB3, O75112, sequence (O75112 1-94): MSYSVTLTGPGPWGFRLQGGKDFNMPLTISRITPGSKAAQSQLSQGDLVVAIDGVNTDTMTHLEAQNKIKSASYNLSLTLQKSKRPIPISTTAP

LIN7B, Q9HAP6 = biological target: T5, LIN7B, Q9HAP6
T5 sequence (Q9HAP6 88-185, limits assumed, looked up): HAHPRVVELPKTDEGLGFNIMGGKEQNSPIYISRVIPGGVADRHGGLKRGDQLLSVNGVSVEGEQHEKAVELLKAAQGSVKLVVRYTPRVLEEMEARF

LNX1_1, Q8TBB1 = biological target: LNX1_1, Q8TBB1
LNX1_1, Q8TBB1, sequence (Q8TBB1 261-371): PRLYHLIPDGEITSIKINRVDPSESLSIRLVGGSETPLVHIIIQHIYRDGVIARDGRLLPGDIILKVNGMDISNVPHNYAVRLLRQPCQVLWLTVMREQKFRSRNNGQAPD

MAGI2_4, Q86UL8 = biological target: MAGI2_4, Q86UL8
MAGI2_4, Q86UL8, sequence (Q86UL8 772-865): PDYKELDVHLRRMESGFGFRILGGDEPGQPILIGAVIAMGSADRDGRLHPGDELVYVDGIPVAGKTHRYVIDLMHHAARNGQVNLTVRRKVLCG

MAST1, Q9Y2H9 = biological target: MAST1, Q9Y2H9
MAST1, Q9Y2H9, sequence (Q9Y2H9 962-1065): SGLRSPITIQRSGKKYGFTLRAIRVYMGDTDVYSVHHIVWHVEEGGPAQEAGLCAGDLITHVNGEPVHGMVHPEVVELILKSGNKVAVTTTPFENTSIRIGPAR

MPDZ_12, O75970 = biological target: T6, MPDZ_12, O75970
T6 sequence (O75970 1857-1958, limits assumed, looked up): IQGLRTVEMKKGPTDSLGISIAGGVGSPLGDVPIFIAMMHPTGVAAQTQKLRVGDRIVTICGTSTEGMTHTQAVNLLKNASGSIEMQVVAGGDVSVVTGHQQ

MPP7, Q5T2T1 = biological target: T7, MPP7, Q5T2T1
T7 sequence (Q5T2T1 134-230, limits assumed, looked up): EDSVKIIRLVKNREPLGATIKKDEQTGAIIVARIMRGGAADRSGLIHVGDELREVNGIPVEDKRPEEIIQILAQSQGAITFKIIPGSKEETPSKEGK

PARD3_3, Q8TEW0 = biological target: PARD3_3, Q8TEW0
PARD3_3, Q8TEW0, sequence (Q8TEW0 582-685): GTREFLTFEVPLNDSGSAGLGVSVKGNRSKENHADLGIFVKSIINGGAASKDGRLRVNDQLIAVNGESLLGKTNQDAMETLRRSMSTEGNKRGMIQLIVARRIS

PDZD7_3, Q9H5P4 = biological target: T8, PDZD7_3, Q9H5P4
T8 sequence (Q9H5P4 857-944, limits assumed, looked up): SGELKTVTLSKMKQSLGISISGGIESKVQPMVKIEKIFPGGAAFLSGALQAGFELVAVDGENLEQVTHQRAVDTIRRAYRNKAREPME

PDZRN3_1, Q9UPQ7 = biological target: T9, PDZRN3_1, Q9UPQ7
T9 sequence (Q9UPQ7 244-349, limits assumed, looked up): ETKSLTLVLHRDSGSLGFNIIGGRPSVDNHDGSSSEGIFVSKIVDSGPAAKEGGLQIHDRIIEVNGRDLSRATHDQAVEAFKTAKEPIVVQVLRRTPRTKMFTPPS

PTPN3, P26045 = biological target: PTPN3, P26045
PTPN3, P26045, sequence (P26045 505-587): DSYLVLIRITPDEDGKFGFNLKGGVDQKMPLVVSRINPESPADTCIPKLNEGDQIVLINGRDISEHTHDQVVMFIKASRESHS

RHPN1, Q8TCX5 = biological target: T10, RHPN1, Q8TCX5
T10 sequence (Q8TCX5 508-602, limits assumed, looked up): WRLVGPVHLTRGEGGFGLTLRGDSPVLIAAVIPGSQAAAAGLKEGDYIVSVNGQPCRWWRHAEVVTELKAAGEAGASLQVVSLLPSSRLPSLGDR

SCRIB_2, Q14160 = biological target: SCRIB_2, Q14160
SCRIB_2, Q14160, sequence (Q14160 857-960): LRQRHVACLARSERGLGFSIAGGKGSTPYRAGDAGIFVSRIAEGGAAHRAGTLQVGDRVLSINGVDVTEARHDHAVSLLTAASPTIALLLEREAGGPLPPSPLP

SCRIB_3, Q14160 = biological target: SCRIB_3, Q14160
SCRIB_3, Q14160, sequence (Q14160 999-1103): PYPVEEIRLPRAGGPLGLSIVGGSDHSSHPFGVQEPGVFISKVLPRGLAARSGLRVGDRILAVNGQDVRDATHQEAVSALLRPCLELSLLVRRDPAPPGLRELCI

SHANK1, Q9Y566 = biological target: T11, SHANK1, Q9Y566
T11 sequence (Q9Y566 658-767, limits assumed, looked up): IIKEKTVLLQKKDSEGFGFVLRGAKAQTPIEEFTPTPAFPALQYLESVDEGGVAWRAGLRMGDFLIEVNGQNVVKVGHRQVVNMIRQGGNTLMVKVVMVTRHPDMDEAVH

TIAM2, Q8IVF5 = biological target: T12, TIAM2, Q8IVF5
T12 sequence (Q8IVF5 885-986, limits assumed, looked up): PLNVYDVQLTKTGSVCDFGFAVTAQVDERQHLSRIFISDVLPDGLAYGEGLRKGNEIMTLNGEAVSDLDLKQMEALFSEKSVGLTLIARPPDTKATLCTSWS

[1] = modified: phospho on S at position -3 from the C-terminal residue
[2] = plain residues with an end cap or a label only (N-terminal biotin on a linker: ado-ado)

pKd (ARHGAP21, Q5T5U3; [1]): below the threshold | pKd (ARHGEF12, Q9NZN5-2; [1]): 3.79 | pKd (DFNB31_1, Q9P202; [1]): 3.6 | pKd (DLG1_1, Q12959; [1]): 3.69 | pKd (DLG3_1, Q92796; [1]): below the threshold | pKd (DLG3_3, Q92796; [1]): below the threshold | pKd (GOPC, Q9HD26; [1]): below the threshold | pKd (HTRA2, O43464; [1]): 3.75 | pKd (IL16_1, Q14005; [1]): below the threshold | pKd (LDB3, O75112; [1]): below the threshold | pKd (LIN7B, Q9HAP6; [1]): below the threshold | pKd (LNX1_1, Q8TBB1; [1]): below the threshold | pKd (MAGI2_4, Q86UL8; [1]): below the threshold | pKd (MAST1, Q9Y2H9; [1]): below the threshold | pKd (MPDZ_12, O75970; [1]): below the threshold | pKd (MPP7, Q5T2T1; [1]): below the threshold | pKd (PARD3_3, Q8TEW0; [1]): 3.76 | pKd (PDZD7_3, Q9H5P4; [1]): 3.72 | pKd (PDZRN3_1, Q9UPQ7; [1]): below the threshold | pKd (PTPN3, P26045; [1]): 4.51 | pKd (RHPN1, Q8TCX5; [1]): 4.34 | pKd (SCRIB_2, Q14160; [1]): below the threshold | pKd (SCRIB_3, Q14160; [1]): 4.35 | pKd (SHANK1, Q9Y566; [1]): below the threshold | pKd (TIAM2, Q8IVF5; [1]): below the threshold
B1: RPS6KA1_-3P, Q15418 (peptide)
chain: RRVRKLPSTTL

pKd (ARHGAP21, Q5T5U3; [2]): 3.96 | pKd (ARHGEF12, Q9NZN5-2; [2]): 4.33 | pKd (DFNB31_1, Q9P202; [2]): below the threshold | pKd (DLG1_1, Q12959; [2]): 4.44 | pKd (DLG3_1, Q92796; [2]): 4.06 | pKd (DLG3_3, Q92796; [2]): below the threshold | pKd (GOPC, Q9HD26; [2]): 3.92 | pKd (HTRA2, O43464; [2]): below the threshold | pKd (IL16_1, Q14005; [2]): below the threshold | pKd (LDB3, O75112; [2]): below the threshold | pKd (LIN7B, Q9HAP6; [2]): below the threshold | pKd (LNX1_1, Q8TBB1; [2]): 3.61 | pKd (MAGI2_4, Q86UL8; [2]): 4.44 | pKd (MAST1, Q9Y2H9; [2]): 3.74 | pKd (MPDZ_12, O75970; [2]): below the threshold | pKd (MPP7, Q5T2T1; [2]): below the threshold | pKd (PARD3_3, Q8TEW0; [2]): below the threshold | pKd (PDZD7_3, Q9H5P4; [2]): 4.41 | pKd (PDZRN3_1, Q9UPQ7; [2]): below the threshold | pKd (PTPN3, P26045; [2]): 4.01 | pKd (RHPN1, Q8TCX5; [2]): 4.16 | pKd (SCRIB_2, Q14160; [2]): 3.71 | pKd (SCRIB_3, Q14160; [2]): 3.62 | pKd (SHANK1, Q9Y566; [2]): 3.49 | pKd (TIAM2, Q8IVF5; [2]): below the threshold
B2: C3AR1, Q16581 (peptide)
chain: VISERNSTTV

pKd (ARHGAP21, Q5T5U3; [2]): 3.53 | pKd (ARHGEF12, Q9NZN5-2; [2]): below the threshold | pKd (DFNB31_1, Q9P202; [2]): below the threshold | pKd (DLG1_1, Q12959; [2]): below the threshold | pKd (DLG3_1, Q92796; [2]): below the threshold | pKd (DLG3_3, Q92796; [2]): below the threshold | pKd (GOPC, Q9HD26; [2]): below the threshold | pKd (HTRA2, O43464; [2]): below the threshold | pKd (IL16_1, Q14005; [2]): below the threshold | pKd (LDB3, O75112; [2]): below the threshold | pKd (LIN7B, Q9HAP6; [2]): 3.72 | pKd (LNX1_1, Q8TBB1; [2]): below the threshold | pKd (MAGI2_4, Q86UL8; [2]): below the threshold | pKd (MAST1, Q9Y2H9; [2]): 3.71 | pKd (MPDZ_12, O75970; [2]): below the threshold | pKd (MPP7, Q5T2T1; [2]): 4.24 | pKd (PARD3_3, Q8TEW0; [2]): 5.29 | pKd (PDZD7_3, Q9H5P4; [2]): below the threshold | pKd (PDZRN3_1, Q9UPQ7; [2]): below the threshold | pKd (PTPN3, P26045; [2]): below the threshold | pKd (RHPN1, Q8TCX5; [2]): below the threshold | pKd (SCRIB_2, Q14160; [2]): below the threshold | pKd (SCRIB_3, Q14160; [2]): 3.74 | pKd (SHANK1, Q9Y566; [2]): below the threshold | pKd (TIAM2, Q8IVF5; [2]): 3.86
B3: AMOTL1, Q8IY63 (peptide)
chain: PDGEMMEVLI
